From publication PMC6482348

T1: endogenous mouse PrxI (mouse (endogenous in BMDMs)), P35700
T1 chain: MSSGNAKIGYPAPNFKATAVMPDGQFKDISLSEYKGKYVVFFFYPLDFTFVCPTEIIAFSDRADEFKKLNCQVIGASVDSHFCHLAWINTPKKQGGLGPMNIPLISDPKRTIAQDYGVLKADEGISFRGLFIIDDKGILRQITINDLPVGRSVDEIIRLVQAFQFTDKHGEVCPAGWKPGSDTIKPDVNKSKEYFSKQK

T2: endogenous mouse PrxII (mouse (endogenous in MEFs and BMDMs)), Q61171
T2 chain: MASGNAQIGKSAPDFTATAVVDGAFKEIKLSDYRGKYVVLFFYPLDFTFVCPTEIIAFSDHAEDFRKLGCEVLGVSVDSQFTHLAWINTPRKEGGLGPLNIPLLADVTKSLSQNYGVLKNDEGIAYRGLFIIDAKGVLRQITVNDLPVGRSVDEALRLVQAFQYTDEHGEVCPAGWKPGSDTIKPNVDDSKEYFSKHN

B1: endogenous mouse PrxI, P35700 1-199 (enzyme)
chain: T1 chain
B2: endogenous mouse PrxII, Q61171 1-198 (enzyme)
chain: T2 chain

How the values were obtained:
[1] = biological target: T1, endogenous mouse PrxI (mouse …); assay: nonreducing SDS-PAGE and immunoblot of disulfide-linked complexes; conditions: remark: other sources report otherwise
[2] = biological target: T2, endogenous mouse PrxII (mouse …); assay: as above; conditions: remark: other sources report otherwise

| Binder | stoichiometry N [1] | stoichiometry N [2] |
| --- | --- | --- |
| B1 | 2 |  |
| B2 |  | 2 |
